Test results reported in article PMC9256704, “Oncogenic TRIB2 interacts with and regulates PKM2 to promote aerobic glycolysis and lung cancer cell procession” (Cell Death Discovery, 2022).

Target: T1, PKM2 (ab89364, Abcam) (human, UniProt P14618 1-531)
T1 construct: human M2 isoform of pyruvate kinase (PKM2), bought recombinant protein; see the vendor's sheet for ab89364; also called PKM2 protein; source: bought: Abcam (ab89364)
Assay: BLI; biotinylated TRIB2 loaded onto SSA biosensors, blocked with biocytin (5 μg/ml) for 60 s; PKM2 diluted in PBS as analyte; Octet data analysis software
Conditions: both partners purified

T1 sequence (P14618 whole entry, canonical isoform): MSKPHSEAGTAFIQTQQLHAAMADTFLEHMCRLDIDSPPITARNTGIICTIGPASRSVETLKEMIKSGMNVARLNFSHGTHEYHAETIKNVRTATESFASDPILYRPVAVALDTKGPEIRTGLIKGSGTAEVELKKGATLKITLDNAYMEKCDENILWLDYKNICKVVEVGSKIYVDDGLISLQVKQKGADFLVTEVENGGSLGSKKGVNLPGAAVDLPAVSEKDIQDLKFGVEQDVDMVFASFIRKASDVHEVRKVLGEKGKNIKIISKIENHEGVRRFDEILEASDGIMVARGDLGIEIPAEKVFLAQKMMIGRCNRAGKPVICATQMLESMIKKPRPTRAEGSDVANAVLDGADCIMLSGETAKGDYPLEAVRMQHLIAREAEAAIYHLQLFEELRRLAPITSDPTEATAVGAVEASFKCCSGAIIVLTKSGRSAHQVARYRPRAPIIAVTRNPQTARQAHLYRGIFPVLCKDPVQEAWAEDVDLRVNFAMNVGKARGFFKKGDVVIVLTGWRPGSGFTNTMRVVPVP

B1: recombinant TRIB2 protein (TP301210, OriGene), biotinylated (natural protein, human, UniProt Q92519 1-343, looked up)
chain: MNIHRSTPITIARYGRSRNKTQDFEELSSIRSAEPSQSFSPNLGSPSPPETPNLSHCVSCIGKYLLLEPLEGDHVFRAVHLHSGEELVCKVFDISCYQESLAPCFCLSAHSNINQITEIILGETKAYVFFERSYGDMHSFVRTCKKLREEEAARLFYQIASAVAHCHDGGLVLRDLKLRKFIFKDEERTRVKLESLEDAYILRGDDDSLSDKHGCPAYVSPEILNTSGSYSGKAADVWSLGVMLYTMLVGRYPFHDIEPSSLFSKIRRGQFNIPETLSPKAKCLIRSILRREPSERLTSQEILDHPWFSTDFSVSNSAYGAKEVSDQLVPDVNMEENLDPFFN
modifications: biotinylated
notes: human Tribbles homologue 2 (TRIB2), bought recombinant protein; also called human TRIB2; source: bought: OriGene (TP301210)
Kd: 7.44 nM
